{"source": "patent US20160011217A1", "about": "(NATIONAL CANCER CENTER, published 2016)", "binders": {"B1": {"name": "Fib-0355 antibody (monoclonal antibody produced by hybridoma Fib-0355) (antibody, V domains shown)", "VH": "GPELKKPGETVKISCKASGYTFTNYGMNWVKQAPGKGLKWMGWINTNTGEPTYAEEFKGRFAFSLETSASTAYLQINNLKNEDTATYFCARLLDYWGQGTTLTVSS", "VL": "PSSLAVSAGEKVTMSCKSSQSVLYSSNQKNYLAWYQQKPGQSPKLLIYWASTRESGVPDRFTGSGSGTDFTLTISSVQAEDLAVYYCQQYLSSYTFGG", "notes": "Mouse hybridoma monoclonal antibody, detected with anti-mouse IgG-HRP; also called anti-β chain antibody"}}, "target": "T1, insoluble fibrin (fibrin plate, fibrin clot or tissue fibrin; species not stated for the experiment) (Homo sapiens (Human), UniProt P02671 36-630; P02675 45-491; P02679 27-433, Insoluble polymer of (alpha-beta-gamma)2 fibrin monomers, disulfide-bridged and possibly cross-linked by factor XIII. The letters give one copy of each chain only.)", "T1 sequence (alpha)": "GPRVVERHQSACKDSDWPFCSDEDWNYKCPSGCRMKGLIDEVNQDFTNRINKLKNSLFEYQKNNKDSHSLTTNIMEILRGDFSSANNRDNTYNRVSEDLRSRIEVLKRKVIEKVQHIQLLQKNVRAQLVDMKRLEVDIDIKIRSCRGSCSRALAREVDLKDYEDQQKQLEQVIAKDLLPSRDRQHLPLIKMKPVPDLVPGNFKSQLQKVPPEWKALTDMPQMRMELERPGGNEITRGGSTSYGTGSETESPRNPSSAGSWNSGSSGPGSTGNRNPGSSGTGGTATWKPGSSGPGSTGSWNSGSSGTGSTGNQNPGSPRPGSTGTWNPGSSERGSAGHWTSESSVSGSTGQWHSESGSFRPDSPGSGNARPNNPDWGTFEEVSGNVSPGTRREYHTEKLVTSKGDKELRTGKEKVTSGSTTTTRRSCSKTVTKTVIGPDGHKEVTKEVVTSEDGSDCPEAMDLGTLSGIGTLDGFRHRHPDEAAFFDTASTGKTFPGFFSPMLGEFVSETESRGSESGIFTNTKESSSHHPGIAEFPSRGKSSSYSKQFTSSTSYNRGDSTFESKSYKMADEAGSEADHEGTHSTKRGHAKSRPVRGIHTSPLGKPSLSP", "T1 sequence (beta)": "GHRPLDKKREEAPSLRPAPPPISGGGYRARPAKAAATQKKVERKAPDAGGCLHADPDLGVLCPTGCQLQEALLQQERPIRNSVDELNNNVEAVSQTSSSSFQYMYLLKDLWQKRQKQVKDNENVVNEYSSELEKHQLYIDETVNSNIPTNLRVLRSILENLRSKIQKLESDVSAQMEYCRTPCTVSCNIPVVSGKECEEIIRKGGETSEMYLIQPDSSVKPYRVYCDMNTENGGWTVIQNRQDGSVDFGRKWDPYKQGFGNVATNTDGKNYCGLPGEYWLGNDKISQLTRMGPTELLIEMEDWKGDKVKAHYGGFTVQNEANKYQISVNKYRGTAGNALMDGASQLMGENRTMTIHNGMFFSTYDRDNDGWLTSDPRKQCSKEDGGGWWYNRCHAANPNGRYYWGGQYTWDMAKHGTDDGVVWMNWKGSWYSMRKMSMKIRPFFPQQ", "T1 sequence (gamma)": "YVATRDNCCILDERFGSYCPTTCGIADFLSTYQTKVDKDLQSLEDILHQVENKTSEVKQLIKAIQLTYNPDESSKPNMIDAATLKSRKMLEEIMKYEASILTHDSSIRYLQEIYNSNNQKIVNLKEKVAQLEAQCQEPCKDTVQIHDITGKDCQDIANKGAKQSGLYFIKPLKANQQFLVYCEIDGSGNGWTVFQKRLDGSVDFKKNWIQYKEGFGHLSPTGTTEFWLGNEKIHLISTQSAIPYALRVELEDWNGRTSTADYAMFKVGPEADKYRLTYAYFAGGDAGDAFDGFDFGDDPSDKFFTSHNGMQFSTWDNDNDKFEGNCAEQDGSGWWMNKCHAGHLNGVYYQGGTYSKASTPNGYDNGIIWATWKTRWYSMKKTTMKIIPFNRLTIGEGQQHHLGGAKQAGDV", "assay": "ELISA, fibrin plate against fibrinogen plate, antibody at 10 µg/mL, absorbance at 492 nm", "description": "Each of the antibody solutions (100 μL each) at 10 μg/mL was added to the fibrin plate and the fibrinogen plate, and allowed to stand at room temperature for 1 hour. After washing with TBS-T, Bethyl Anti-Human IgG-HRP (×1000 dilution) or Bethyl Anti-Mouse IgG-HRP (×10000 dilution) was added as a secondary antibody. Then, after washing with TBS-T, colorimetry was conducted with OPD for 10 minutes, and measurement was conducted at an absorption wavelength of 492 nm.", "data": [{"binder": "B1", "values": [{"measurement": "ratio of the affinity for insoluble fibrin to the affinity for fibrinogen (absorbance at 492 nm)", "value": 13, "unit": "times"}]}]}
